In patent US20060105442, “Promoters and proteins from Clostridium thermocellum and uses thereof” (published 2006):

Biological target: T1, rGlyR3 (CelR3) (Clostridium thermocellum)
T1 chain: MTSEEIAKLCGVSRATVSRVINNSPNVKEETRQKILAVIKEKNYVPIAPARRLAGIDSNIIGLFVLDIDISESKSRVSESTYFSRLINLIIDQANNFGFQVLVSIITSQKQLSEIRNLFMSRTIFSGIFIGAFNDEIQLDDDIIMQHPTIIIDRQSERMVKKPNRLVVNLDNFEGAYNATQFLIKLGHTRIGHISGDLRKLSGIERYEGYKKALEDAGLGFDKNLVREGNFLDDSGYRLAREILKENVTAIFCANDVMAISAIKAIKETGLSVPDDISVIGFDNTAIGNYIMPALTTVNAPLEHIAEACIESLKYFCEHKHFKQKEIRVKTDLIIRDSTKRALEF
Assay: EMSA; dose dependent; inhibited by laminaribiose

B1: 18 bp GlyR3 binding site (dsDNA)
DNA 1: AATGAACGCGCGTACATT
DNA 2: AATGTACGCGCGTTCATT
Question: Does B1 bind?
Answer: binds
